# Results as given in paper PMC3500399.
# Target: SCR^AxCxA, split Renilla luciferase fusion (Arabidopsis thaliana) (UniProt Q9M384)
# Experiment: split reporter
# Chain of UniProt Q9M384 (Q9M384 whole entry, the tested form may be a part): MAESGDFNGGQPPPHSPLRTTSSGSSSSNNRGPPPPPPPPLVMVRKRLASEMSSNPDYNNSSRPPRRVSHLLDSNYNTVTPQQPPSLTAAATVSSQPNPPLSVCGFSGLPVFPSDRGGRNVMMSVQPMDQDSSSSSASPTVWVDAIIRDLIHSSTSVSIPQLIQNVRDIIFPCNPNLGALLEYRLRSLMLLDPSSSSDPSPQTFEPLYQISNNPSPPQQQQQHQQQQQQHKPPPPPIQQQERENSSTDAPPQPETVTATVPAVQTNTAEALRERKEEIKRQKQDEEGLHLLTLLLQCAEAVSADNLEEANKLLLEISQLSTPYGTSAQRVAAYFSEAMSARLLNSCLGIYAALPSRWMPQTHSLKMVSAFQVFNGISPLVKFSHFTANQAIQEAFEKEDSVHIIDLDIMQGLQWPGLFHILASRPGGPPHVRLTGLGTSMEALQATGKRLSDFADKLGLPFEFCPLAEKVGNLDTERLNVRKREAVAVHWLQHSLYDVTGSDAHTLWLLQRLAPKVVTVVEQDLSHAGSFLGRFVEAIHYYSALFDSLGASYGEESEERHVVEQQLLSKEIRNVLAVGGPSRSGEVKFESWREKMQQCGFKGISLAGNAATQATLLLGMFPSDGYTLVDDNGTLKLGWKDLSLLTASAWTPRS
binder,measurement,value
"RBR, split Renilla luciferase fusion (natural protein) MEEVQPPVTPPIEPNGKRSEASLLDICEKVLSLDGSTCDEALKLFTETKRILSASMSNIGSGTREEVERFWFAFILYSVKRLSVRKEADGLSVSGDNEFNLCQILRALKLNIVDFFKELPQFVVKAGSVLGELYGADWENRLQAKEVQANFVHLSLLSKYYKRGFREFFLTYDANAEKNSANSSTYLLDSYRFGWLLFLALRNHAFSRFKDLVTCSNGVVSILAILIIHVPCRFRNFSIQDSSRFVKKGDKGVDLVASLCKIYDASEDELRIVIDKANNLVETILKKKPSPASECQTDKLDNIDPDGLTYFEDLLEETSISTSLITLEKDYYDGKGELDERVFINEEDSLLGSGSLSAGAVNITGVKRKIDALSSPARTFISPLSPHKSPAAKTNGISGATKLAATPVSTAMTTAKWLRTVISPLLPKPSPGLEHFLKSCDRDITNDVTRRAHIILEAIFPNSSLGAQCGGGSLQAVDLMDDIWAEQRRLEACKLYYRVLEAMCKAEAQILHANNLNSLLTNERFHRCMLACSAELVLATHKTITMLFPAVLERTGITAFDLSKVIESFIRHEDSLPRELRRHLNSLEERLLESMVWEKGSSMYNSLIVARPSLALEINQLGLLAEPMPSLDAIAALINFSDGANHASSVQKHETCPGQNGGIRSPKRLCTDYRSILVERNSFTSPVKDRLLALGNVKSKMLPPPLQSAFASPTRPNPGGGGETCAETGINIFFTKINKLAAVRINGMVERLQLSQQIRESVYCFFQHVLAQRTSLLFSRHIDQIILCCFYGVAKISQMSLTFREIIYNYRKQPQCKPLVFRSVYVDALQCRRQGRIGPDHVDIITFYNEIFIPAVKPLLVELGPVRNDRAVEANNKPEGQCPGSPKVSVFPSVPDMSPKKVSAVHNVYVSPLRGSKMDALISHSTKSYYACVGESTHAYQSPSKDLSAINNRLNNSSSNRKRTLNFDAEAGMVSDSMVANSLNLQNQNQNQNGSDASSSGGAAPLKTEPTDS",percent of the RBR-SCR interaction (split Renilla luciferase),11%
